These results are taken from article PMC3259534.

One assay addresses MRG15 MRG L287A (human) (UniProt Q9UBU8). In words: ITC. Background: In ITC the heat of successive injections is recorded.
For a further assay, the target named is MRG15 MRG V227A (human) (UniProt Q9UBU8). In words: ITC.
In a further assay the target is MRG15 MRG R201K (human) (UniProt Q9UBU8). In words: ITC.
A further assay deals with MRG15 MRG V268A (human) (UniProt Q9UBU8). Put plainly: ITC.
The target in assay [1] is MRG15 MRG polypeptide (residues 155–323), K201R background (human) (UniProt Q9UBU8). In words: ITC.
Another assay has as its target MRG15 MRG M273A (human) (UniProt Q9UBU8). Put plainly: ITC.
Another assay has as its target MRG15 MRG M228A (human) (UniProt Q9UBU8). In words: ITC.
The next assay deals with MRG15 MRG W172A (human) (UniProt Q9UBU8). Put plainly: ITC.
Assay [2] deals with MRG15 MRG polypeptide (residues 155–323), K201R background (human) (UniProt Q9UBU8). In words: NMR titration.

B1: Pf1 MBD (MRG-binding domain, residues 200–241) (domain or fragment)
chain: DYVQPQLRRPFELLIAAAMERNPTQFQLPNELTCTTALPGSS
Broadly, the Kd is a measure of binding affinity in units of concentration. Read a high Kd as weaker binding. In the case of B1, the Kd in the assay with MRG15 MRG L287A (human) was determined as 407 nM; in the assay with MRG15 MRG V227A (human), 194 nM; with MRG15 MRG R201K (human), 23 nM; in the assay with MRG15 MRG V268A (human) it was 184 nM; in assay [1], 12 nM; in the assay with MRG15 MRG M273A (human), 96 nM. Moreover, the Kd stood at 75 nM with MRG15 MRG M228A (human) and 67 nM in the assay with MRG15 MRG W172A (human).

B2: Pf1 MBD F225A (domain or fragment)
chain: DYVQPQLRRPFELLIAAAMERNPTQAQLPNELTCTTALPGSS
In assay [1], B2 registered a Kd of 19000 nM.

B3: Pf1 MBD L212A (domain or fragment)
chain: DYVQPQLRRPFEALIAAAMERNPTQFQLPNELTCTTALPGSS
Molecule B3 returned a Kd in assay [1] of 35 nM.

B4: Pf1 MBD L213A (domain or fragment)
chain: DYVQPQLRRPFELAIAAAMERNPTQFQLPNELTCTTALPGSS
Molecule B4 gave a dissociation constant (Kd) in assay [1] of 280 nM.

B5: Pf1 MBD L227A (domain or fragment)
chain: DYVQPQLRRPFELLIAAAMERNPTQFQAPNELTCTTALPGSS
B5: the equilibrium dissociation constant (Kd) in assay [1] worked out at 370 nM.

B6: Pf1 MBD F210A (domain or fragment)
chain: DYVQPQLRRPAELLIAAAMERNPTQFQLPNELTCTTALPGSS
For the molecule B6, the Kd in assay [1] amounted to 2600 nM.

B7: Pf1 MBD N221E (domain or fragment)
chain: DYVQPQLRRPFELLIAAAMEREPTQFQLPNELTCTTALPGSS
In the case of B7, the Kd in [1] worked out at 15 nM.

B8: Pf1 MBD P228A (domain or fragment)
chain: DYVQPQLRRPFELLIAAAMERNPTQFQLANELTCTTALPGSS
As for B8, the dissociation constant (Kd) in [1] amounted to 85 nM.

B9: Pf1 (aa 114–258) (domain or fragment)
chain: ELGHVNGLVDKSGKRTTSPSSDTDLLDRSASKTELKAIAHARILERRASRPGTPTSSASTETPTSEQNDVDEDIIDVDEEPVAAEPDYVQPQLRRPFELLIAAAMERNPTQFQLPNELTCTTALPGSSKRRRKEETTGKNVKKTQ
On to B9, for which the Kd in assay [1] was determined as 16 nM.

B10: Pf1 peptide corresponding to the tail segment (residues 219–232) (peptide)
peptide: ERNPTQFQLPNELT
In turn, B10 yielded a Kd in assay [2] of 119000 nM.
